Experimental data reported in patent US7153676B1, “Transacylases of the paclitaxel biosynthetic pathway” (priority 1999, dated 2006).

Substrate: CC(=O)SCCNC(=O)CCNC(=O)[C@H](O)C(C)(C)COP(=O)(O)OP(=O)(O)OC[C@H]1O[C@@H](n2cnc3c(N)ncnc32)[C@H](O)[C@@H]1OP(=O)(O)O
Test: purified protein, by the assay type
Conditions: other: Lineweaver-Burk analysis, partially purified recombinant TAX6

B1: 10-deacetylbaccatin III-10-O-acetyl transferase (TAX6) (Taxus cuspidata) (protein)
chain: MAGSTEFVVRSLERVMVAPSQPSPKAFLQLSTLDNLPGVRENIFNTLLVYNASDRVSVDPAKVIRQALSKVLVYYSPFAGRLRKKENGDLEVECTGEGALFVEAMADTDLSVLGDLDDYSPSLEQLLFCLPPDTDIEDIHPLVVQVTRFTCGGFVVGVSFCHGICDGLGAGQFLIAMGEMARGEIKPSSEPIWKRELLKPEDPLYRFQYYHFQLICPPSTFGKIVQGSLVITSETINCIKQCLREESKEFCSAFEVVSALAWIARTRALQIPHSENVKLIFAMDMRKLFNPPLSKGYYGNFVGTVCAMDNVKDLLSGSLLRVVRIIKKAKVSLNEHFTSTIVTPRSGSDESINYENIVGFGDRRRLGFDEVDFGWGHADNVSLVQHGLKDVSVVQSYFLFIRPPKNNPDGIKILSFMPPSIVKSFKFEMETMTNKYVTKP
**Q.** B1 was tested. Which Km did it give?
**A.** Its Km is 8 µM.
